This is an account of results in US20220112276A1 (Janssen / Centocor, published 2022).

Experiment [1] has as its target T1, rat pIgR extracellular domain (rat, UniProt P15083 19-643).
T1 construct: extracellular domain
T1 sequence (looked up): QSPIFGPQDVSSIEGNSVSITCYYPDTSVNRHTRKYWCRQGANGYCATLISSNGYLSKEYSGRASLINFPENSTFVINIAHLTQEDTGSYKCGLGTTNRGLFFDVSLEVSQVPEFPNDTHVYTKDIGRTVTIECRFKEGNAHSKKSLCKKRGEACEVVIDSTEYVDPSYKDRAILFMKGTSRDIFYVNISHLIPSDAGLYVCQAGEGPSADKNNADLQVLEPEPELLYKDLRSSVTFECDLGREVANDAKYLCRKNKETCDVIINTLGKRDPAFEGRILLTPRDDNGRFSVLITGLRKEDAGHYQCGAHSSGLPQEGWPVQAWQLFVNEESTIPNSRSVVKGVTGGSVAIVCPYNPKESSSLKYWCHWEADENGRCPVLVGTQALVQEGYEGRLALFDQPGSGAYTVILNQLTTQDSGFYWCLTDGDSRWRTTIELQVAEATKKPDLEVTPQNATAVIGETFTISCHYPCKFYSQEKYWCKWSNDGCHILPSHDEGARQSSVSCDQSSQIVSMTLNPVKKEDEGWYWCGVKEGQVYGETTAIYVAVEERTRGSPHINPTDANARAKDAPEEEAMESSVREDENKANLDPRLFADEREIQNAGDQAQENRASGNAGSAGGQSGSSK
Description: SPR, VHH captured by anti-Fc, ECD analyte. In short, it runs like this: (§1)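 Anti-human Fc surface captured VHH at 0.5 ug/ml (~200-300 RU); running buffer HBSP with 100 ug/ml BSA, 30 μL/min. Single-cycle kinetics with ECD injected low to high from 30 nM in 3-fold dilutions, dissociation 30 min. Double-referenced data globally fit to 1:1 Langmuir model for kon, koff, KD.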

Experiment [2] concerns the target T2, cynomolgus monkey pIgR extracellular domain (cynomolgus monkey, UniProt A0A2K5WMU9 19-638).
T2 construct: extracellular domain
Description: SPR, VHH captured by anti-Fc, ECD analyte. In short, it runs like this:
as §1
(SPR reads the build-up and loss of mass on a sensor chip optically.)

Experiment [3] deals with T3, mouse pIgR extracellular domain (ECD) (mouse, UniProt O70570 19-645).
T3 construct: Bought from R&D Systems (Cat 2800-PG-050); also called mpIgR ECD
T3 sequence: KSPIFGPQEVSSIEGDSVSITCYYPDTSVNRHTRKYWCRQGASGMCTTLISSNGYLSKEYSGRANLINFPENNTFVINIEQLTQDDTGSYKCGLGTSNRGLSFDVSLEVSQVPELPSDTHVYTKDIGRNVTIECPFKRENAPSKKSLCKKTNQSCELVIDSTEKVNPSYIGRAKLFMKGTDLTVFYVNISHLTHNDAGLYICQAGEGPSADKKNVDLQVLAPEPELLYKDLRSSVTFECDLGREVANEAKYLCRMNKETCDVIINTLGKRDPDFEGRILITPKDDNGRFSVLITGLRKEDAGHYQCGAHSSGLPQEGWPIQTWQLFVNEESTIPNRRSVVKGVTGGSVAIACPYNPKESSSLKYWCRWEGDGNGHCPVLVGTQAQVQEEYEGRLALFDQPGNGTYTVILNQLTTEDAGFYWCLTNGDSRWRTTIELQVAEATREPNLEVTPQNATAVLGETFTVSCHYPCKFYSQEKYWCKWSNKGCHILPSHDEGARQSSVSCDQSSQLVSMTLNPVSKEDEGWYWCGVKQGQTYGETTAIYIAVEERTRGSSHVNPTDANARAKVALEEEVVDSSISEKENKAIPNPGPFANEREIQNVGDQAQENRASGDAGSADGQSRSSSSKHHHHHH
Description: SPR, VHH captured by anti-Fc, ECD analyte. Put shortly:
as §1

For experiment [4], the target named is T4, human pIgR extracellular domain (ECD) (human, UniProt P01833 19-638).
T4 construct: Bought from R&D Systems (Cat 2717-PG-050); also called hpIgR ECD
T4 sequence (P01833 other isoform, or with tags, fused parts or gaps): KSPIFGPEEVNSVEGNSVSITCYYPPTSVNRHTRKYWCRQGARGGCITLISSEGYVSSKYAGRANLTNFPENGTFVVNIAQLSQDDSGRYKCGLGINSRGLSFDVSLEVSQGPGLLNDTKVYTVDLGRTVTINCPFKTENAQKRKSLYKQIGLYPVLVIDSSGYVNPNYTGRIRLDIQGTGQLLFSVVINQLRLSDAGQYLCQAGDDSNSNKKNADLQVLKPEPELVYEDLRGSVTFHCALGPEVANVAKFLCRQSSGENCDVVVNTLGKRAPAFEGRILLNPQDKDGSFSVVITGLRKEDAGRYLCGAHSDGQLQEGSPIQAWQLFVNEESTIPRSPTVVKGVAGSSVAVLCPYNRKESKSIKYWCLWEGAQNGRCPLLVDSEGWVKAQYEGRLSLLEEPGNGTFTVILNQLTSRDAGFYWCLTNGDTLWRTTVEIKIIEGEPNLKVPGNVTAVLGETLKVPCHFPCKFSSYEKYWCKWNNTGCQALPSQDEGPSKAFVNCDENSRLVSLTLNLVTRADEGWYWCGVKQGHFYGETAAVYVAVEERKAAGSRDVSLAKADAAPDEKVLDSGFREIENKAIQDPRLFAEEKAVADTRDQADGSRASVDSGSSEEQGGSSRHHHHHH
Description: SPR.

T2 sequence (A0A2K5WMU9 entry or part of it): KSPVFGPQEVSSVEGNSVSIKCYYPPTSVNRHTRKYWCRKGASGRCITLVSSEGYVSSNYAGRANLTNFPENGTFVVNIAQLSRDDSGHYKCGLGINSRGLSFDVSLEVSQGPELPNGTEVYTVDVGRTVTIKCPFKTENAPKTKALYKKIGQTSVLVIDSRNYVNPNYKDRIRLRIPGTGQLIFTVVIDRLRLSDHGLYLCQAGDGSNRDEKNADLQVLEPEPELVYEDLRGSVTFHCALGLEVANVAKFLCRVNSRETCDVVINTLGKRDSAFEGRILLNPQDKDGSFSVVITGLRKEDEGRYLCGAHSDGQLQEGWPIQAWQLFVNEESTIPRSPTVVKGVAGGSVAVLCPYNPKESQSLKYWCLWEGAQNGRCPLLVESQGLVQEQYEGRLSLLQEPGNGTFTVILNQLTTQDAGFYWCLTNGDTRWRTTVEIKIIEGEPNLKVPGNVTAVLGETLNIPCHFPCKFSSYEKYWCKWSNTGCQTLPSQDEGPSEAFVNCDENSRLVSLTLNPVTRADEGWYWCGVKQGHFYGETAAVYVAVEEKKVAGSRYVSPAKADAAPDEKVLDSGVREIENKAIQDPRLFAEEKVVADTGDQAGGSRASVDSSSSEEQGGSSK

B1: 01E11R2 VHH Mono-Fc (Fc fusion)
chain: QVQLVESGGGLVQTGGSLRLSCAASGLTFSSYTMGWFRQAPGKEREFVAAISWGGASTWYADSVKGRFTISRDNAKTMVYLQMNGLKPEDTAVYYCAKGRNNGYATAVRAYDYWGQGTLVTVSSSPAPELLGGPSVFLFPPKPKDTLMISRTPEVTCVVVDVSHEDPEVKFNWYVDGVEVHNAKTKPREEQYNSTYRVVSVLTVLHQDWLNGKEYKCKVSNKALPAPIEKTISKAKGQPREPQVYTKPPSREEMTKNQVSLSCLVKGFYPSDIAVEWESNGQPENNYKTTVPVLDSDGSFRLASYLTVDKSRWQQGNVFSCSVMHEALHNHYTQKSLSLSPGK
Take B1: the results for the Kd in experiment [1], in experiment [2] and in experiment [3] were 22.5 nM, 86.1 nM and 20.6 nM, respectively. The binding result in experiment [4] was “no binding (tested: 30 nM)”.

B2: 01A04R3LS VHH Mono-Fc (Fc fusion)
chain: QVQLVESGGGSVQPGGSLRLSCAASGIDVSISTIMWYRQPPGRQRELVADVIPSGRSTTYTESVKGRFTVTRDNAKNTVYLQMSGLKPEDTAVYYCNAFVRRENYWGQGTQVTVSSSPAPELLGGPSVFLFPPKPKDTLMISRTPEVTCVVVDVSHEDPEVKFNWYVDGVEVHNAKTKPREEQYNSTYRVVSVLTVLHQDWLNGKEYKCKVSNKALPAPIEKTISKAKGQPREPQVYTKPPSREEMTKNQVSLSCLVKGFYPSDIAVEWESNGQPENNYKTTVPVLDSDGSFRLASYLTVDKSRWQQGNVFSCSVMHEALHNHYTQKSLSLSPGK
For B2, in experiment [3], binding was characterised by a dissociation constant (Kd) of 3.29 nM. Further, in experiment [4], the binding result was “no binding (tested: 30 nM)”.

B3: 02H04R3 VHH Mono-Fc (Fc fusion)
chain: EVQLVESGGGLVQPGGRLRLSCAASGSIFSIRDMGWYRQAPGKQRELVAIFARGGSTHYADSVKGRFTISRDNAKNTVYLQMNSLEPEDTAAYYCNAEVATMIQPGFRDYWGQGTQVTVSSSPAPELLGGPSVFLFPPKPKDTLMISRTPEVTCVVVDVSHEDPEVKFNWYVDGVEVHNAKTKPREEQYNSTYRVVSVLTVLHQDWLNGKEYKCKVSNKALPAPIEKTISKAKGQPREPQVYTKPPSREEMTKNQVSLSCLVKGFYPSDIAVEWESNGQPENNYKTTVPVLDSDGSFRLASYLTVDKSRWQQGNVFSCSVMHEALHNHYTQKSLSLSPGK
Consider B3, for which the dissociation constant (Kd) (as a rule, the equilibrium constant for the complex coming apart) in experiment [1] turned out to be 25.4 nM; in experiment [3], 46.6 nM. Moreover, in experiment [4], the binding result was “no binding (tested: 30 nM)”.

B4: 01A03R3L VHH Mono-Fc (Fc fusion)
chain: EVQLVESGGGLVQPGGQLRLSCAASGSIASVRDMAWYRQAPGKQRGLVAIFARGGTTHYADSVKGRFTISRDNAKNTVYLQMNSLEPEDTAAYYCNAEVATMFQPGFRDYWGRGTLVTVSSSPAPELLGGPSVFLFPPKPKDTLMISRTPEVTCVVVDVSHEDPEVKFNWYVDGVEVHNAKTKPREEQYNSTYRVVSVLTVLHQDWLNGKEYKCKVSNKALPAPIEKTISKAKGQPREPQVYTKPPSREEMTKNQVSLSCLVKGFYPSDIAVEWESNGQPENNYKTTVPVLDSDGSFRLASYLTVDKSRWQQGNVFSCSVMHEALHNHYTQKSLSLSPGK
Take B4: the figures for the equilibrium dissociation constant (Kd) in experiment [1] and in experiment [3] were 2.91 nM and 6.06 nM, respectively. The binding result in experiment [4] is given as “no binding (tested: 30 nM)”.

B5: 02B03R3 VHH Mono-Fc (Fc fusion)
chain: EVQLVESGGGLVQSGGQLRLSCAASGSIASIRDMAWYRQAPGKQRELVAIFARGGTTHYADSVKGRFTISRDNAKNTVYLQMNSLEPEDTAAYYCNAEVATMFQPGFRDYWGRGTLVTVSSSPAPELLGGPSVFLFPPKPKDTLMISRTPEVTCVVVDVSHEDPEVKFNWYVDGVEVHNAKTKPREEQYNSTYRVVSVLTVLHQDWLNGKEYKCKVSNKALPAPIEKTISKAKGQPREPQVYTKPPSREEMTKNQVSLSCLVKGFYPSDIAVEWESNGQPENNYKTTVPVLDSDGSFRLASYLTVDKSRWQQGNVFSCSVMHEALHNHYTQKSLSLSPGK
For B5, the dissociation constant Kd in experiment [1] worked out at 1.32 nM; in experiment [3], 2.76 nM. Besides, in experiment [4], the binding result is listed as “no binding (tested: 30 nM)”.

B6: 02D06R3 VHH Mono-Fc (Fc fusion)
chain: QVQLVESGGGLVQPGGRLRLSCAASGSIFSIRDMAWYRQAPGKQREWVAIAARGGSTHYADSVKGRFTISRDNAKNTVYLQMNTLEPEDTAAYYCNAEVATMIQPGFRDYWGQGTQVTVSSSPAPELLGGPSVFLFPPKPKDTLMISRTPEVTCVVVDVSHEDPEVKFNWYVDGVEVHNAKTKPREEQYNSTYRVVSVLTVLHQDWLNGKEYKCKVSNKALPAPIEKTISKAKGQPREPQVYTKPPSREEMTKNQVSLSCLVKGFYPSDIAVEWESNGQPENNYKTTVPVLDSDGSFRLASYLTVDKSRWQQGNVFSCSVMHEALHNHYTQKSLSLSPGK
Turning to B6, the values for the Kd in experiment [1] and in experiment [3] were 0.448 nM and 1.34 nM, respectively. Besides, the binding result in experiment [4] is given as “no binding (tested: 30 nM)”.

B7: 01C03R3L VHH Mono-Fc (Fc fusion)
chain: QVQLVESGGGLVQPGGRLRLSCAASGSIFSIRDMGWYRQAPGKQRELVAIFARGGSTHYADSVKGRFTISRDNAKNTVYLQMNSLEPEDTAAYYCNAEVATMIQPGFRDYWGQGTLVTVSSSPAPELLGGPSVFLFPPKPKDTLMISRTPEVTCVVVDVSHEDPEVKFNWYVDGVEVHNAKTKPREEQYNSTYRVVSVLTVLHQDWLNGKEYKCKVSNKALPAPIEKTISKAKGQPREPQVYTKPPSREEMTKNQVSLSCLVKGFYPSDIAVEWESNGQPENNYKTTVPVLDSDGSFRLASYLTVDKSRWQQGNVFSCSVMHEALHNHYTQKSLSLSPGK
As to B7, the Kd in experiment [1] was determined as 16 nM; in experiment [3], 33.1 nM. Further, in experiment [4], the binding result is “no binding (tested: 30 nM)”.

B8: 02H11R3 VHH Mono-Fc (Fc fusion)
chain: EVQLVESGGGSVQAGGSLRLSCAASGRTFSNYAMGWFRQAPGKEREFVAGISRSGGSTYSADSVKGRFTISRDNAKNTVYLQMNSLKPEDTAVYYCAADGLDYALGFRGDYWGQGTQVTVSSSPAPELLGGPSVFLFPPKPKDTLMISRTPEVTCVVVDVSHEDPEVKFNWYVDGVEVHNAKTKPREEQYNSTYRVVSVLTVLHQDWLNGKEYKCKVSNKALPAPIEKTISKAKGQPREPQVYTKPPSREEMTKNQVSLSCLVKGFYPSDIAVEWESNGQPENNYKTTVPVLDSDGSFRLASYLTVDKSRWQQGNVFSCSVMHEALHNHYTQKSLSLSPGK
For B8, the Kd in experiment [1] was 1.74 nM; in experiment [3], 0.71 nM. The binding result in experiment [4] is reported as “no binding (tested: 30 nM)”.

B9: 01G03R3L VHH Mono-Fc (Fc fusion)
chain: QVQLVESGGGSVQAGGSLRLSCAASGRTFSNYAMGWFRQAPGKEREFVAGISRSGGSTYSADSVKGRFTISRDNAKNTVYLQMNSLKPEDTAVYYCAADGLDYALGFRGDYWGQGTLVTVSSSPAPELLGGPSVFLFPPKPKDTLMISRTPEVTCVVVDVSHEDPEVKFNWYVDGVEVHNAKTKPREEQYNSTYRVVSVLTVLHQDWLNGKEYKCKVSNKALPAPIEKTISKAKGQPREPQVYTKPPSREEMTKNQVSLSCLVKGFYPSDIAVEWESNGQPENNYKTTVPVLDSDGSFRLASYLTVDKSRWQQGNVFSCSVMHEALHNHYTQKSLSLSPGK
As to B9, the Kd amounted to 1.61 nM in experiment [1] and 0.796 nM in experiment [3]. For the same molecule, the binding result in experiment [4] is “no binding (tested: 30 nM)”.

B10: 01F05R2LS VHH Mono-Fc (Fc fusion)
chain: QVQLVESGGGLVQAGGSLRLSCAASGSIFAINGMGWYRQAPGKQRELVAVITRGGSTNYADSVKGRFTISRDNAKNTVSLQMNSLKPEDTAVYYCAATGVLAGWAAGDGMDYWGKGTLVTVSSSPAPELLGGPSVFLFPPKPKDTLMISRTPEVTCVVVDVSHEDPEVKFNWYVDGVEVHNAKTKPREEQYNSTYRVVSVLTVLHQDWLNGKEYKCKVSNKALPAPIEKTISKAKGQPREPQVYTKPPSREEMTKNQVSLSCLVKGFYPSDIAVEWESNGQPENNYKTTVPVLDSDGSFRLASYLTVDKSRWQQGNVFSCSVMHEALHNHYTQKSLSLSPGK
On to B10, for which the values for the dissociation constant (Kd) in experiment [2] and in experiment [3] were 2.72 nM and 3.98 nM, respectively. In addition, the binding result in experiment [4] is listed as “no binding (tested: 30 nM)”.
